Laboratory results: patent US20250297020A1 (ADALTA, published 2025)
“And” between values parts separate entries of the source, which are not always exact repeats. Equal entries are not always repeated.

Tests used:
[1] = target: T1, human RANK-L (Receptor Activator of Nuclear factor Kappa B Ligand), recombinant (human, UniProt O14788 140-317, limits assumed); test: SPR (Biacore) sensorgrams with fitted curves; panel headed "pAb+RANKL"; value from the column "KD" of the table drawn in the panel
T1 construct: The Methods also describe RANKL lipoparticles for phage ELISA and SPR; also called hRANK-L; hRANKL
T1 sequence (looked up): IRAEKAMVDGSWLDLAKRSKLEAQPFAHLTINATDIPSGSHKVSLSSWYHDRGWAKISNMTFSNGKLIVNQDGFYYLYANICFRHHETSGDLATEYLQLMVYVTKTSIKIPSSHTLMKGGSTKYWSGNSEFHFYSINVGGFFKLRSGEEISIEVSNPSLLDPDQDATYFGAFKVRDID
Description: Measurement of the kinetics of ADR03 binding to human RANK-L was carried out by immobilising human RANKL onto a research grade CMS sensor chip using standard amine coupling. Each of three surfaces is first activated for seven minutes using a 1:1 mixture of […] N-hydroxysuccinimide (NHS) and […] 1-ethyl-3-(3-dimethylaminopropyl)-carbodimide (EDC). Then, the RANK-L sample is diluted 1- to 50-fold in 10 mM sodium acetate, pH 4.0, and exposed to the activated chip surface for different lengths of time (ten seconds to two minutes) to create three different density surfaces of RANK-L. Each surface is then blocked with a seven-minute injection of 1 M ethanolamine, pH 8.2. RANK-L is diluted 100-fold and injected for different amounts of time to be captured at three different surface densities (60 RU, 45 RU, 12 RU; Response Unit (RU) is termed by Biacore and relates to target molecule per surface area) onto a streptavidin-containing sensor chip. […] The kinetic responses for the ADR03 injections can be analyzed using the non-linear least squares analysis program CLAMP (Myszka, D. G. and Morton, T. A. (1998) Trends Biochem. Sci., 23: 149-150). Calculations of multivalent interactions can be determined using a model to fit the avidity of the bivalent interaction of ADR03 with RANK-L (Drake et al. (2004) Anal. Biochem., 328: 35-43; and Muller et al., (1998) Anal. Biochem. 261: 149-158).

[2] = target: T1, human RANK-L (Receptor Activator of …); test: cell-based or functional assay
[3] = target: T1, human RANK-L (Receptor Activator of …); test: SPR (Biacore), human RANK-L immobilised on the chip, ADR03 injected
Description: Measurement of the kinetics of ADR03 binding to human RANK-L was carried out by immobilising human RANKL onto a research grade CMS sensor chip using standard amine coupling. Each of three surfaces is first activated for seven minutes using a 1:1 mixture of […] N-hydroxysuccinimide (NHS) and […] 1-ethyl-3-(3-dimethylaminopropyl)-carbodimide (EDC). Then, the RANK-L sample is diluted 1- to 50-fold in 10 mM sodium acetate, pH 4.0, and exposed to the activated chip surface for different lengths of time (ten seconds to two minutes) to create three different density surfaces of RANK-L. Each surface is then blocked with a seven-minute injection of 1 M ethanolamine, pH 8.2. RANK-L is diluted 100-fold and injected for different amounts of time to be captured at three different surface densities (60 RU, 45 RU, 12 RU; Response Unit (RU) is termed by Biacore and relates to target molecule per surface area) onto a streptavidin-containing sensor chip. The experiments can be performed on a Biacore® 2000 or T100 optical biosensor. ADR03 is supplied at approximately 100 μg/mL and tested in a 3-fold dilution series in Sample Running Buffer over the three RANK-L surfaces. Each of ADR03 concentrations (five, 3-fold dilutions of RANK-L-coupled sensors) is tested three times to assess reproducibility of the assay. Each test is injected at a flow rate of 100 μL/minute for 60 seconds, followed by a three-minute dissociation phase. Bound ADR03 can then be removed using a five-second pulse with sensor regeneration solution. All data is usually collected at a temperature-controlled 20° c. The kinetic responses for the ADR03 injections can be analyzed using the non-linear least squares analysis program CLAMP (Myszka, D. G. and Morton, T. A. (1998) Trends Biochem. Sci., 23: 149-150). Calculations of multivalent interactions can be determined using a model to fit the avidity of the bivalent interaction of ADR03 with RANK-L (Drake et al. (2004) Anal. Biochem., 328: 35-43; and Muller et al., (1998) Anal. Biochem. 261: 149-158).

Kd [1]: 13.2 nM
IC50 of inhibition of hRANK-L-induced production of TRAP positive multinucleated cells (RAW264.7) [2]: 100 ng/mL and 3 nM
Kd [3]: 13.2 nM
koff [3]: 0.00029 s⁻¹
kon [3]: ~23000 M⁻¹ s⁻¹
B1: ADR03 i-body (RANK-L binding i-body on the NCAM domain 1 scaffold) (designed binder)
chain: LQVDIVPSQGEISVGESKFFLCQVAGAHTVESISWFSPNGEKLTPNQQRISVVWNDDSSSTLTIYNANIDDAGIYKCVVVASARRGFGWVYPHEATVNVKIFQ
notes: I-bodies were expressed in E. coli with FLAG or penta-His tags; also called ADR3; i-body ADR03
